According to the supplement of paper PMC10724198:
± gives the standard deviation of the averaged measurements.
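Further: PSI is a weighted mean of sequencing reads over stability bins, variants kept only with over 10 reads, mCherry proximal and sfGFP distal, peptide attached via GGGS linker.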

What follows are sequences tested on Saccharomyces cerevisiae (assay: protein stability index of tFT-peptide fusion (C-terminal peptide) (PSI (0-1 scale)); higher = more stable (slower turnover)). Details: genetic background: cdc34-1; temperature: 37 C.
Procedure: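 MPS profiling in S. cerevisiae of the tFT-X12 degron library: putative degron peptides plus stable controls, 12 aa, fused to the C-terminus of a sfGFP-mCherry timer. Cells are FACS-sorted into 8 mCherry/sfGFP bins and deep-sequenced. PSI runs from 0 (unstable) to 1 (stable). Backgrounds are wild type, das1Δ and doa10Δ at 30 °C, and wild type, das1Δ, cdc34-1 and cdc53-1 at 37 °C; 2-3 technical replicates each.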
Sequence GRVCWVVLAGLV has a protein stability index of 0.593 ± 0.04.

Same assay, conditions: genetic background: cdc53-1; temperature: 37 C
Sequence FCCFFVHMSFFL has a protein stability index of 0.424 ± 0.024. Sequence FCFLLLVSFFFV has a protein stability index of 0.407 ± 0.21. FCICRFLFIFLG gave a protein stability index of 0.463 ± 0.012. In the case of FCIFAMQICTSA, the protein stability index is reported as 0.173 ± 0.0037. For FCSPFFFFLFRL, the protein stability index was 0.241 ± 0.032. FFFLPLFLVLSL was tested, and the protein stability index was 0.158 ± 0.034. FFGFYLKFVWCG gave a protein stability index of 0.4683 ± 0.0021. Work on FFPSFGLFLCPV yielded a protein stability index of 0.471 ± 0.0067. FFSRIIAILVLM gave a protein stability index of 0.453 ± 0.014. In the case of FFVEKRVFFGII, the protein stability index is reported as 0.733 ± 0.015. In the case of FFVMVFTVEVFV, the protein stability index is reported as 0.0863 ± 0.019. For FFVWLGWGMFYG, the protein stability index was 0.575 ± 0.015. FGALVVCFLTRC was tested, and the protein stability index was 0.511 ± 0.056. Work on FGGFYGRRVLII yielded a protein stability index of 0.682 ± 0.0097. Work on FGGYLRAGVFLT yielded a protein stability index of 0.6969 ± 0.0015. FGPVLLVSFLFS was tested, and the protein stability index was 0.386 ± 0.033. In the case of FGVRRSFVVFVV, the protein stability index is reported as 0.456 ± 0.011. FHLFIRRSAVIF gave a protein stability index of 0.576 ± 0.0062. Sequence FILFSEMFASSV has a protein stability index of 0.175 ± 0.0083. FLCIFFFFLISF gave a protein stability index of 0.194 ± 0.0028. FLCLLSLFFLDF was tested, and the protein stability index was 0.572 ± 0.024. For FLFCACIRVFSY, the protein stability index was 0.17 ± 0.019. In the case of FLFSSLFCFLFL, the protein stability index is reported as 0.428 ± 0.0099. Work on FLLYRFSLVGCF yielded a protein stability index of 0.108 ± 0.02. FLLYVITYRSET was tested, and the protein stability index was 0.304 ± 0.046. Sequence FLPLLFFFFFRF has a protein stability index of 0.292 ± 0.0066. FLPSLSLPLLLF showed a protein stability index of 0.549 ± 0.02. In the case of FLSLVIVLRWFL, the protein stability index is reported as 0.303 ± 0.045. Sequence FLWAVSLCRSLV has a protein stability index of 0.655 ± 0.022. FMRKLVVLVVLG was tested, and the protein stability index was 0.307 ± 0.013. With FMVYRIHSSAVM the protein stability index was 0.172 ± 0.014. Sequence FPGPPSPPPSYF has a protein stability index of 0.776 ± 0.001. FPVWTALLTVRA showed a protein stability index of 0.128 ± 0.015. FRCRFLLPFYSV showed a protein stability index of 0.724 ± 0.0096. In the case of FRLCQRPVFLLS, the protein stability index is reported as 0.669 ± 0.014. FSCSRNVLVTVV was tested, and the protein stability index was 0.197 ± 0.019. For FSFPIIFFGMFL, the protein stability index was 0.463 ± 0.0054. FSFSFWALLWFP gave a protein stability index of 0.54 ± 0.017. FSFVVRMFFRIL gave a protein stability index of 0.266 ± 0.0039. In the case of FSLSLFPYPFSL, the protein stability index is reported as 0.764 ± 0.045. FSSFLGFIRFFV showed a protein stability index of 0.751 ± 0.0091. In the case of FTLFFVASVLDL, the protein stability index is reported as 0.518 ± 0.01. Sequence FVGLFEYILLFV has a protein stability index of 0.167 ± 0.029. FVLLTFLFFWQF showed a protein stability index of 0.441 ± 0.028. Work on FVLWYFCCVGCM yielded a protein stability index of 0.305 ± 0.018. In the case of FVRCFWPFVFVF, the protein stability index is reported as 0.142 ± 0.021. In the case of FVRGWGIVFSLA, the protein stability index is reported as 0.599 ± 0.023. For FVWWFFFLSVVS, the protein stability index was 0.306 ± 0.023. Sequence FWILLRVLIFVL has a protein stability index of 0.172 ± 0.0087. Work on FYFMGFFFGLGM yielded a protein stability index of 0.627 ± 0.052. For FYLFPSLPLLLL, the protein stability index was 0.432 ± 0.022. FYLSFWFLIFFF showed a protein stability index of 0.251 ± 0.023. GCCFVCSVFWWG gave a protein stability index of 0.493 ± 0.0055. For GCWRVELLVFMC, the protein stability index was 0.205 ± 0.011. For GDFYCSSVVLVV, the protein stability index was 0.401 ± 0.036. GEGISCLLRRLT gave a protein stability index of 0.709 ± 0.018. In the case of GFLAVTVACVWR, the protein stability index is reported as 0.136 ± 0.0021. GFLWFCGVPVGW gave a protein stability index of 0.7385 ± 0.0044. With GFVSLFRLFIRL the protein stability index was 0.218 ± 0.02. In the case of GGGHGSSCSVCD, the protein stability index is reported as 0.74 ± 0.034. With GGGWGVFVVLWW the protein stability index was 0.325 ± 0.0065. Sequence GGIVLLVRVCGP has a protein stability index of 0.636 ± 0.0091. In the case of GGLLSQLLRSIG, the protein stability index is reported as 0.723 ± 0.019. GGRWRRRGFFFS was tested, and the protein stability index was 0.72 ± 0.01. Work on GGYCQMFFLYFR yielded a protein stability index of 0.0464 ± 0.018. GHHLRVRVILTA was tested, and the protein stability index was 0.435 ± 0.0077. GICLVLVSDIWI was tested, and the protein stability index was 0.558 ± 0.0064. Sequence GIGYMFLNVWLV has a protein stability index of 0.302 ± 0.0072. In the case of GKGVFGGLFFLV, the protein stability index is reported as 0.741 ± 0.019. Work on GLGLIRTSRLLC yielded a protein stability index of 0.695 ± 0.026. Sequence GLLAFVCISHTS has a protein stability index of 0.542 ± 0.0086. GLPRRFLLLSVV showed a protein stability index of 0.4613 ± 0.0015. GPHATYLYLVLA showed a protein stability index of 0.258 ± 0.022. In the case of GPRRARLPNFLA, the protein stability index is reported as 0.684 ± 0.031. Sequence GQSRLVADLRQV has a protein stability index of 0.6934 ± 0.0012. Sequence GRGFVLSVAVVA has a protein stability index of 0.453 ± 0.031. Work on GRVCWVVLAGLV yielded a protein stability index of 0.591 ± 0.053.

Same assay, conditions: genetic background: das1 deletion; temperature: 30 C
FCCFFVHMSFFL showed a protein stability index of 0.298 ± 0.026. Work on FCFLLLVSFFFV yielded a protein stability index of 0.252 ± 0.029. Work on FCICRFLFIFLG yielded a protein stability index of 0.358 ± 0.033. FCIFAMQICTSA gave a protein stability index of 0.112 ± 0.033. FCSPFFFFLFRL was tested, and the protein stability index was 0.357 ± 0.028. FFFLPLFLVLSL gave a protein stability index of 0.29 ± 0.025. Work on FFGFYLKFVWCG yielded a protein stability index of 0.391 ± 0.024. FFPSFGLFLCPV gave a protein stability index of 0.366 ± 0.036. FFSRIIAILVLM showed a protein stability index of 0.337 ± 0.024. FFVEKRVFFGII was tested, and the protein stability index was 0.593 ± 0.026. Work on FFVMVFTVEVFV yielded a protein stability index of 0.0929 ± 0.015. FFVWLGWGMFYG was tested, and the protein stability index was 0.425 ± 0.025. For FGALVVCFLTRC, the protein stability index was 0.342 ± 0.027. Sequence FGGFYGRRVLII has a protein stability index of 0.544 ± 0.023. FGGYLRAGVFLT was tested, and the protein stability index was 0.645 ± 0.027. For FGPVLLVSFLFS, the protein stability index was 0.242 ± 0.031. FGVRRSFVVFVV gave a protein stability index of 0.337 ± 0.033. FHLFIRRSAVIF showed a protein stability index of 0.455 ± 0.017. For FILFSEMFASSV, the protein stability index was 0.265 ± 0.026. FLCIFFFFLISF gave a protein stability index of 0.261 ± 0.027. Sequence FLCLLSLFFLDF has a protein stability index of 0.461 ± 0.03. Sequence FLFCACIRVFSY has a protein stability index of 0.144 ± 0.025. Sequence FLFSSLFCFLFL has a protein stability index of 0.474 ± 0.021. Work on FLLLVFGLLIDS yielded a protein stability index of 0.246 ± 0.067. For FLLYRFSLVGCF, the protein stability index was 0.123 ± 0.031. FLLYVITYRSET was tested, and the protein stability index was 0.21 ± 0.03. With FLPLLFFFFFRF the protein stability index was 0.391 ± 0.037. In the case of FLPSLSLPLLLF, the protein stability index is reported as 0.425 ± 0.035. FLSLVIVLRWFL showed a protein stability index of 0.255 ± 0.022. With FLWAVSLCRSLV the protein stability index was 0.548 ± 0.035. FMRKLVVLVVLG was tested, and the protein stability index was 0.222 ± 0.031. With FMVYRIHSSAVM the protein stability index was 0.251 ± 0.06. Sequence FPGPPSPPPSYF has a protein stability index of 0.639 ± 0.01. Sequence FPVWTALLTVRA has a protein stability index of 0.181 ± 0.035. With FRCRFLLPFYSV the protein stability index was 0.632 ± 0.0089. Work on FRLCQRPVFLLS yielded a protein stability index of 0.542 ± 0.018. FSCSRNVLVTVV showed a protein stability index of 0.229 ± 0.029. For FSFPIIFFGMFL, the protein stability index was 0.394 ± 0.02. FSFSFWALLWFP was tested, and the protein stability index was 0.438 ± 0.022. Sequence FSFVVRMFFRIL has a protein stability index of 0.39 ± 0.038. Sequence FSLSLFPYPFSL has a protein stability index of 0.686 ± 0.02. FSSFLGFIRFFV showed a protein stability index of 0.655 ± 0.022. Work on FTLFFVASVLDL yielded a protein stability index of 0.378 ± 0.03. Work on FVGLFEYILLFV yielded a protein stability index of 0.201 ± 0.028. Sequence FVLLTFLFFWQF has a protein stability index of 0.321 ± 0.031. For FVLWYFCCVGCM, the protein stability index was 0.232 ± 0.026. In the case of FVRCFWPFVFVF, the protein stability index is reported as 0.222 ± 0.031. In the case of FVRGWGIVFSLA, the protein stability index is reported as 0.438 ± 0.036. In the case of FVWWFFFLSVVS, the protein stability index is reported as 0.265 ± 0.032. FWILLRVLIFVL was tested, and the protein stability index was 0.18 ± 0.033. Sequence FYFMGFFFGLGM has a protein stability index of 0.519 ± 0.047. In the case of FYLFPSLPLLLL, the protein stability index is reported as 0.422 ± 0.018. Work on FYLSFWFLIFFF yielded a protein stability index of 0.273 ± 0.031. With GCCFVCSVFWWG the protein stability index was 0.348 ± 0.031. GCWRVELLVFMC showed a protein stability index of 0.185 ± 0.03. With GDFYCSSVVLVV the protein stability index was 0.332 ± 0.032. GEGISCLLRRLT gave a protein stability index of 0.661 ± 0.024. GFLAVTVACVWR showed a protein stability index of 0.154 ± 0.018. With GFLWFCGVPVGW the protein stability index was 0.609 ± 0.017. GFVSLFRLFIRL was tested, and the protein stability index was 0.352 ± 0.032. With GGGHGSSCSVCD the protein stability index was 0.665 ± 0.023. For GGGWGVFVVLWW, the protein stability index was 0.216 ± 0.034. For GGIVLLVRVCGP, the protein stability index was 0.436 ± 0.019. In the case of GGLLSQLLRSIG, the protein stability index is reported as 0.617 ± 0.024. GGRWRRRGFFFS was tested, and the protein stability index was 0.702 ± 0.032. GGYCQMFFLYFR showed a protein stability index of 0.0923 ± 0.042. Sequence GHHLRVRVILTA has a protein stability index of 0.311 ± 0.026. Work on GICLVLVSDIWI yielded a protein stability index of 0.413 ± 0.026. GIGYMFLNVWLV gave a protein stability index of 0.246 ± 0.024. GKGVFGGLFFLV was tested, and the protein stability index was 0.623 ± 0.027. GLGLIRTSRLLC gave a protein stability index of 0.627 ± 0.02. In the case of GLLAFVCISHTS, the protein stability index is reported as 0.378 ± 0.033. GLPRRFLLLSVV gave a protein stability index of 0.354 ± 0.033. For GPHATYLYLVLA, the protein stability index was 0.226 ± 0.039. GPRRARLPNFLA showed a protein stability index of 0.657 ± 0.018. Sequence GQSRLVADLRQV has a protein stability index of 0.646 ± 0.012. Sequence GRGFVLSVAVVA has a protein stability index of 0.395 ± 0.034. With GRVCWVVLAGLV the protein stability index was 0.441 ± 0.026.
